# Measured values reported in PMC3408474, “Constitutive Phosphorylation of Interferon Receptor A-Associated Signaling Proteins in Systemic Lupus Erythematosus” (PLoS ONE, 2012).
# T1: IFNAR2 chain of the type I interferon receptor (IFNAR) (human (endogenous in PBMC), UniProt P48551 27-515)
# T1 construct: IFNAR2 chain of the human type I interferon receptor, endogenous in peripheral blood mononuclear cells; precipitated with rabbit anti-IFNAR2 and protein G-Sepharose; source: endogenous, lysate of PBMC from SLE patients or healthy controls
# T1 sequence (looked up): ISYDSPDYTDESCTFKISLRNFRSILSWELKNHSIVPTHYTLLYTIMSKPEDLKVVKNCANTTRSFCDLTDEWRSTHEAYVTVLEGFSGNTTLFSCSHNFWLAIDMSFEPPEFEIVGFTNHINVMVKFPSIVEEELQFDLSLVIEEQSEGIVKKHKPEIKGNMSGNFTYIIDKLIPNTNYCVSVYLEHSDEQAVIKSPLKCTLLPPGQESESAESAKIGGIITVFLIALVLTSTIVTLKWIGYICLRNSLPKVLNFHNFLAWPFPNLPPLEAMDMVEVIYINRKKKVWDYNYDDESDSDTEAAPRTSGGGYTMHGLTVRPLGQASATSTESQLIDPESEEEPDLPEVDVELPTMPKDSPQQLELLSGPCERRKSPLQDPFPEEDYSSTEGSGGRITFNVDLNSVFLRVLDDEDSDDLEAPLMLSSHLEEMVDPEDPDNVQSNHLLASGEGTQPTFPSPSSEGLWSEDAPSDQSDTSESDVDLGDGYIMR
# T2: IFNAR1 chain of the type I interferon receptor (IFNAR) (human (endogenous in PBMC), UniProt P17181 28-557)
# T2 construct: IFNAR1 chain of the human type I interferon receptor, endogenous in peripheral blood mononuclear cells; precipitated with mouse anti-IFNAR1 and protein A-Sepharose; source: endogenous, lysate of PBMC from SLE patients or healthy controls
# T2 sequence (looked up): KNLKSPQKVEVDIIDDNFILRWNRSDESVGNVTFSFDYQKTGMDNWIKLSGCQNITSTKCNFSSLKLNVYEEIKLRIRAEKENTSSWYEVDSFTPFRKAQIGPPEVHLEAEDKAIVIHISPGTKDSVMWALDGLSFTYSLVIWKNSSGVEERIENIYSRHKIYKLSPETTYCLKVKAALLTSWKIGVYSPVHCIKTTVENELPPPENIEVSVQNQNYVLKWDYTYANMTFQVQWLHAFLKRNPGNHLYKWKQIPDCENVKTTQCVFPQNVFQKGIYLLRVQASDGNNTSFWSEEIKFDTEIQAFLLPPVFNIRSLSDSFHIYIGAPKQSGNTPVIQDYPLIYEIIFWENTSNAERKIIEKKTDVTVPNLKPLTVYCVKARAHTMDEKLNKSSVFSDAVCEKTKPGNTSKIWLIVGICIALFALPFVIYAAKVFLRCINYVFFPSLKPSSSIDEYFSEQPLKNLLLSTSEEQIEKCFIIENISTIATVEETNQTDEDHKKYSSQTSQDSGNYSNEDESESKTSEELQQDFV
# Assays:
# [1] = molecular target: T1, IFNAR2 chain of the type I interferon …; assay: co-IP; lysates (50 µg total protein) of PBMC from SLE patients or healthy controls, cultured in medium alone or with 50 U/ml IFNβ for 0, 30 min, 1 h and 4 h; incubated overnight at 4°C with mouse anti-IFNAR1 (protein A-Sepharose 4B) and/or rabbit anti-IFNAR2 (protein G-Sepharose 4B); blotted for SOCS1, STAT2, Jak1 and Tyk2; conditions: partners not purified
# [2] = molecular target: T2, IFNAR1 chain of the type I interferon …; assay: as above; conditions: partners not purified
binder,measurement,setting,value
"suppressor of cytokine signaling 1 (SOCS1) (natural protein, human (endogenous in PBMC), UniProt O15524 1-211, looked up, SOCS1, endogenous in human peripheral blood mononuclear cells; detected by blot with anti-SOCS1; source: endogenous, lysate of PBMC from SLE patients or healthy controls) MVAHNQVAADNAVSTAAEPRRRPEPSSSSSSSPAAPARPRPCPAVPAPAPGDTHFRTFRSHADYRRITRASALLDACGFYWGPLSVHGAHERLRAEPVGTFLVRDSRQRNCFFALSVKMASGPTSIRVHFQAGRFHLDGSRESFDCLFELLEHYVAAPRRMLGAPLRQRRVRPLQELCRQRIVATVGRENLARIPLNPVLRDYLSSFPFQI",fold increase of association one hour after IFNβ over unstimulated cells,[1],~6 fold
same,fold increase of association one hour after IFNβ over unstimulated cells,[2],< 1 fold
